Legend:
Flag-Rbpj WT full length = Flag-Rbpj WT full length (mouse, UniProt P31266 1-526); assay: EMSA; poly(dI-dC); single and double occupancy; anti-Flag supershift; ITC: 50 mM sodium phosphate, 150 mM NaCl, 10 C (pH not stated); EMSA purified: 3.4 nM probe, 10 min room temperature; EMSA IVT: 10 mM Tris-HCl pH 7.5, 100 mM NaCl, 0.1 mM EDTA, 0.5 mM DTT, 4% glycerol, poly(dI-dC); details: protein: ivt; tags: Flag; label: 32P; 5' overhang 4 nt both ends
Rbpj E89G = Rbpj E89G (mouse, UniProt P31266 53-474, E89G); assay: ITC; 10 C; ITC: 50 mM sodium phosphate, 150 mM NaCl, 10 C (pH not stated); EMSA purified: 3.4 nM probe, 10 min room temperature; EMSA IVT: 10 mM Tris-HCl pH 7.5, 100 mM NaCl, 0.1 mM EDTA, 0.5 mM DTT, 4% glycerol, poly(dI-dC); details: protein: recombinant; tags: GST removed by PreScission (pGEX-6P1); blunt
Sequence of Rbpj E89G (P31266 53-474 E89G): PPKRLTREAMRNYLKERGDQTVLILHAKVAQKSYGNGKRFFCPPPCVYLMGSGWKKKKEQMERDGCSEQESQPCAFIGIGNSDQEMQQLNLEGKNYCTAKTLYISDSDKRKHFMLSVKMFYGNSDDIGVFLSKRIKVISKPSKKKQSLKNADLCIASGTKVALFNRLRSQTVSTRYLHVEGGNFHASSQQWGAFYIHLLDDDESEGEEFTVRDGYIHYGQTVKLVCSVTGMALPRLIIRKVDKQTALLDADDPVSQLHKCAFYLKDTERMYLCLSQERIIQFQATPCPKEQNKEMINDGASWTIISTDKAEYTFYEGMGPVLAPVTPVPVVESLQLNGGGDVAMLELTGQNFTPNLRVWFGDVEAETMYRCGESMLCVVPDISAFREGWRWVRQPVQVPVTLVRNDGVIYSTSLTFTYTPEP

Rbpj WT (core) [1] = target: T1, Rbpj WT (core) (mouse, UniProt P31266 53-474); assay: as above; details: protein: recombinant; tags: GST removed by PreScission (pGEX-6P1); blunt
T1 sequence (P31266 53-474): as the sequence (P31266 53-474 E89G) above, with G37E counted along it

Rbpj K195E = Rbpj K195E (mouse, UniProt P31266 53-474, K195E); assay: as above; details: protein: recombinant; tags: GST removed by PreScission (pGEX-6P1); blunt
Sequence of Rbpj K195E (P31266 53-474 K195E): as the sequence (P31266 53-474 E89G) above, with G37E, K143E counted along it

Rbpj WT (core) [2] = target: T1, Rbpj WT (core); assay: EMSA; ITC: 50 mM sodium phosphate, 150 mM NaCl, 10 C (pH not stated); EMSA purified: 3.4 nM probe, 10 min room temperature; EMSA IVT: 10 mM Tris-HCl pH 7.5, 100 mM NaCl, 0.1 mM EDTA, 0.5 mM DTT, 4% glycerol, poly(dI-dC); details: protein: recombinant; tags: GST removed by PreScission (pGEX-6P1); label: IRDye-700 at 5' end of strand 2; blunt

Sequence of Flag-Rbpj WT full length (P31266 whole entry): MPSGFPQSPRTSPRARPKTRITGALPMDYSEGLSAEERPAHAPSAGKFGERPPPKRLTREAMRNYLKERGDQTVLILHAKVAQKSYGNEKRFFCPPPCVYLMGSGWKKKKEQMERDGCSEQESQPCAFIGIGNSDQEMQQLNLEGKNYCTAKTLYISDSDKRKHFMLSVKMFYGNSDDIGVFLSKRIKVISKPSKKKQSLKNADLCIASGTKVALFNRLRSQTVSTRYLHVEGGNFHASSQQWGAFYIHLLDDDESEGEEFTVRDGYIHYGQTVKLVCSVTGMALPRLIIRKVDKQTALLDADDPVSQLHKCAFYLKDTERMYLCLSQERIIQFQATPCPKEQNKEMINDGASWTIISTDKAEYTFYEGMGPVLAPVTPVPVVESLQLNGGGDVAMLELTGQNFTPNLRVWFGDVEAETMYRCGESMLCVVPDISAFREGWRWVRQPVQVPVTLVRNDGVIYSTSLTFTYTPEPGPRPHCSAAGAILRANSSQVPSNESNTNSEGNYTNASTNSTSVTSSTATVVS

B1: EMSA probe with 2 RBPJ sites (dsDNA)
DNA 1: CCTGGAACTATTTTCCCACGGTGCCCTTCCGCCCATTTTCCCACGAGTCG
DNA 2: CTCGCGACTCGTGGGAAAATGGGCGGAAGGGCACCGTGGGAAAATAGTTC
binding result (Flag-Rbpj WT full length): binds

B2: ITC 20-mer CSL duplex (dsDNA)
DNA 1: GGCACCGTGGGAAACTAGTG
DNA 2: CACTAGTTTCCCACGGTGCC
Kd (Rbpj E89G): 440 ± 86.8 nM
Kd (Rbpj WT (core) [1]): 74 ± 10.8 nM
Kd (Rbpj K195E): 1160 ± 258 nM

B3: EMSA high affinity CSL probe (dsDNA)
DNA 1: CGAACGAGGCAAACCTAGGCTAGAGGCACCGTGGGAAACTAGTGCGGGCGTGGCT
DNA 2: AGCCACGCCCGCACTAGTTTCCCACGGTGCCTCTAGCCTAGGTTTGCCTCGTTCG
binding result (Rbpj WT (core) [2]): binds
